Molecular target: T1, DR4 receptor (human, UniProt O00220 24-239, limits assumed)
T1 construct: The construct used in the ELISA is not described
Test: receptor binding ELISA

T1 sequence (O00220 24-239 H141R/R209T limits assumed): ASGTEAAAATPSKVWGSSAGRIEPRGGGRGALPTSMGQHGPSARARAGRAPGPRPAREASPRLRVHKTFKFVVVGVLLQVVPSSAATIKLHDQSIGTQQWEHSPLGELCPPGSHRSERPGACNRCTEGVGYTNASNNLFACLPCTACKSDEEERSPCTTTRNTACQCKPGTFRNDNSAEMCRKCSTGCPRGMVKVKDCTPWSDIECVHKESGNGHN

| EC50 [µg/mL] | Binder |
| --- | --- |
| 0.0045 | PEG-R170C-Apo2L.0(32176-78) (ligand, Cys170 either carries methoxy-PEG-maleimide, MW 2,000 D, or is in a disulfide bond with Cys170 of another trimer; rest blocked with iodoacetamide, the number of chains is therefore not one value; also called partially PEGylated and disulfide crosslinked R170C-Apo2L.0; PEG-R170C-Apo2L.0 lot 32176-78) VRERGPQRVAAHITGTRGRSNTLSSPNSKNEKALGRKINSWESSRSGHSFLSNLHLCNGELVIHEKGFYYIYSQTYFRFQEEIKENTKNDKQMVQYIYKYTSYPDPILLMKSARNSCWSKDAEYGLYSIYQGGIFELKENDRIFVSVTNEHLIDMDHEASFFGAFLVG |
| 0.0422 | PEG-R170C-Apo2L.0 (32176-87C) (ligand, methoxy-PEG-maleimide, MW 2,000 D, on Cys170 (one PEG per monomer); residual unpegylated Cys170 carboxyamidomethylated with iodoacetamide, also called PEG-2K-R170C-Apo2L.0; R170C-PEG-2K) VRERGPQRVAAHITGTRGRSNTLSSPNSKNEKALGRKINSWESSRSGHSFLSNLHLCNGELVIHEKGFYYIYSQTYFRFQEEIKENTKNDKQMVQYIYKYTSYPDPILLMKSARNSCWSKDAEYGLYSIYQGGIFELKENDRIFVSVTNEHLIDMDHEASFFGAFLVG |
